From paper PMC9839326 (Science Advances, 2023) come the findings set out here.

This assay has as its target cytochrome f (Cyt f) of spinach Cyt b6f (spinach (Spinacia oleracea), UniProt P16013 36-320). In words: cryo-EM structure.

Chain of cytochrome f (Cyt f) of spinach Cyt b6f (P16013 36-320): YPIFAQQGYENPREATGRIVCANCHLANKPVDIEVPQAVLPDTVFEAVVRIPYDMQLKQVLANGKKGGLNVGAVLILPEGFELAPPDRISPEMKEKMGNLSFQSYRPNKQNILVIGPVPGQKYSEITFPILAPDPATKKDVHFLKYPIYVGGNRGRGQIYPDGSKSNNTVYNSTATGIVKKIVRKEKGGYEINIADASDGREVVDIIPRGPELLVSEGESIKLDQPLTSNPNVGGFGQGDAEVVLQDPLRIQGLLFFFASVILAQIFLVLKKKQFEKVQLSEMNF

B1: plastocyanin (PC) from spinach (natural protein)
chain: VEVLLGGGDGSLAFLPGDFSVASGEEIVFKNNAGFPHNVVFDEDEIPSGVDAAKISMSEEDLLNAPGETYKVTLTEKGTYKFYCSPHQGAGMVGKVTVN
In the case of B1, the binding result is on record as “binds”.
